B1: "Bile acid-CoA:amino acid N-acyltransferase" (Homo sapiens), Q14032 (parent)
chain: MIQLTATPVSALVDEPVHIRATGLIPFQMVSFQASLEDENGDMFYSQAHYRANEFGEVDLNHASSLGGDYMGVHPMGLFWSLKPEKLLTRLLKRDVMNRPFQVQVKLYDLELIVNNKVASAPKASLTLERWYVAPGVTRIKVREGRLRGALFLPPGEGLFPGVIDLFGGLGGLLEFRASLLASRGFASLALAYHNYEDLPRKPEVTDLEYFEEAANFLLRHPKVFGSGVGVVSVCQGVQIGLSMAIYLKQVTATVLINGTNFPFGIPQVYHGQIHQPLPHSAQLISTNALGLLELYRTFETTQVGASQYLFPIEEAQGQFLFIVGEGDKTINSKAHAEQAIGQLKRHGKNNWTLLSYPGAGHLIEPPYSPLCCASTTHDLRLHWGGEVIPHAAAQEHAWKEIQRFLRKHLIPDVTSQL
B2: Tuftelin-interacting protein 11 (Homo sapiens), Q9UBB9 (parent)
chain: MSLSHLYRDGEGRIDDDDDERENFEITDWDLQNEFNPNRQRHWQTKEEATYGVWAERDSDDERPSFGGKRARDYSAPVNFISAGLKKGAAEEAELEDSDDEEKPVKQDDFPKDFGPRKLKTGGNFKPSQKGFAGGTKSFMDFGSWERHTKGIGQKLLQKMGYVPGRGLGKNAQGIINPIEAKQRKGKGAVGAYGSERTTQSMQDFPVVDSEEEAEEEFQKELSQWRKDPSGSKKKPKYSYKTVEELKAKGRISKKLTAPQKELSQVKVIDMTGREQKVYYSYSQISHKHNVPDDGLPLQSQQLPQSGKEAKAPGFALPELEHNLQLLIDLTEQEIIQNDRQLQYERDMVVNLFHELEKMTEVLDHEERVISNLSKVLEMVEECERRMQPDCSNPLTLDECARIFETLQDKYYEEYRMSDRVDLAVAIVYPLMKEYFKEWDPLKDCTYGTEIISKWKSLLENDQLLSHGGQDLSADAFHRLIWEVWMPFVRNIVTQWQPRNCDPMVDFLDSWVHIIPVWILDNILDQLIFPKLQKEVENWNPLTDTVPIHSWIHPWLPLMQARLEPLYSPIRSKLSSALQKWHPSDSSAKLILQPWKDVFTPGSWEAFMVKNIVPKLGMCLGELVINPHQQHMDAFYWVIDWEGMISVSSLVGLLEKHFFPKWLQVLCSWLSNSPNYEEITKWYLGWKSMFSDQVLAHPSVKDKFNEALDIMNRAVSSNVGAYMQPGARENIAYLTHTERRKDFQYEAMQERREAENMAQRGIGVAASSVPMNFKDLIETKAEEHNIVFMPVIGKRHEGKQLYTFGRIVIYIDRGVVFVQGEKTWVPTSLQSLIDMAK
partner: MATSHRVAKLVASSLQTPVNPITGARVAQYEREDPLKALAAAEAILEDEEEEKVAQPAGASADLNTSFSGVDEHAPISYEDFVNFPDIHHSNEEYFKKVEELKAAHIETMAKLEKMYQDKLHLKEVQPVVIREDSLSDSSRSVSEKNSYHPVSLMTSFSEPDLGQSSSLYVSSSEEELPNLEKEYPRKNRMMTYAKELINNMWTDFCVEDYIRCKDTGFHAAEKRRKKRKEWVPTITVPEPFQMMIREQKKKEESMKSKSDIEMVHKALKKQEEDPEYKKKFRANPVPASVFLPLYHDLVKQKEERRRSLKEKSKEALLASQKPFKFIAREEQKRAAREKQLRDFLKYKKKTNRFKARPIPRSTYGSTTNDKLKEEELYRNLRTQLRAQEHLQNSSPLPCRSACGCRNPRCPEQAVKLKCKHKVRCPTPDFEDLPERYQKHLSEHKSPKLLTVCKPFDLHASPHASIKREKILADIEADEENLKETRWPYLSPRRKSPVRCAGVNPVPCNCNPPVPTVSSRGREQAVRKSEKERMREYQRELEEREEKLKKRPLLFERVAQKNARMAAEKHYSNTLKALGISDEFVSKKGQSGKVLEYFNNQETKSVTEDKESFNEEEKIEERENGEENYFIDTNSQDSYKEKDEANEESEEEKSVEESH
B3: Cilium assembly protein DZIP1L (Homo sapiens), Q8IYY4 (parent)
chain: MQSPAATAEGLSGPLFGAYTFPTFKFQPRHDSMDWRRISTLDVDRVARELDVATLQENIAGITFCNLDREVCSRCGQPVDPALLKVLRLAQLIIEYLLHCQDCLSASVAQLEARLQTSLGQQQRGQQELGRQADELKGVREESRRRRKMISTLQQLLMQTGTHSYHTCHLCDKTFMNATFLRGHIQRRHAGVAEGGKQKKQEQPVEEVLEELRAKLKWTQGELEAQREAERQRQLQEAELIHQREIEAKKEFDKWKEQEWTKLYGEIDKLKKLFWDEFKNVAKQNSTLEEKLRALQSHSVMESKLGSLRDEESEEWLRQARELQALREKTEIQKTEWKRKVKELHEEHMAEKKELQEENQRLQASLSQDQKKAAAQSQCQISTLRAQLQEQARIIASQEEMIQSLSLRKVEGIHKVPKAVDTEEDSPEEEMEDSQDEQHKVLAALRRNPTLLKHFRPILEDTLEEKLESMGIRKDAKGISIQTLRHLESLLRVQREQKARKFSEFLSLRGKLVKEVTSRAKERQENGAVVSQPDGQPSVKSQQSTLVTREAQPKTRTLQVALPSTPAEPPPPTRQSHGSHGSSLTQVSAPAPRPGLHGPSSTPPSSGPGMSTPPFSSEEDSEGDRVQRVSLQPPKVPSRMVPRPKDDWDWSDTETSEENAQPPGQGSGTLVQSMVKNLEKQLEAPAKKPAGGVSLFFMPNAGPQRAATPGRKPQLSEDESDLEISSLEDLPLDLDQREKPKPLSRSKLPEKFGTGPQSSGQPRVPAW
B4: Syntenin-1 (Homo sapiens), O00560 (parent)
chain: MSLYPSLEDLKVDKVIQAQTAFSANPANPAILSEASAPIPHDGNLYPRLYPELSQYMGLSLNEEEIRANVAVVSGAPLQGQLVARPSSINYMVAPVTGNDVGIRRAEIKQGIREVILCKDQDGKIGLRLKSIDNGIFVQLVQANSPASLVGLRFGDQVLQINGENCAGWSSDKAHKVLKQAFGEKITMTIRDRPFERTITMHKDSTGHVGFIFKNGKITSIVKDSSAARNGLLTEHNICEINGQNVIGLKDSQIADILSTSGTVVTITIMPAFIFEHIIKRMAPSIMKSLMDHTIPEV
partner: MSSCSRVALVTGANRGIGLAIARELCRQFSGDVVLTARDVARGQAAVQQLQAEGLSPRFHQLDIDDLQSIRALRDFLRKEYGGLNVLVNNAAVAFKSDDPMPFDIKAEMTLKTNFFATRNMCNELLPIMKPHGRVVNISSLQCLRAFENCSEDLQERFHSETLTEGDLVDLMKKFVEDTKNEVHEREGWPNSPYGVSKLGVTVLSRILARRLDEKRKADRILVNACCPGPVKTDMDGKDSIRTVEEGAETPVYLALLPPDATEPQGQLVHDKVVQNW
B5: Protein LDOC1 (Homo sapiens), O95751 (parent)
chain: MVDELVLLLHALLMRHRALSIENSQLMEQLRLLVCERASLLRQVRPPSCPVPFPETFNGESSRLPEFIVQTASYMLVNENRFCNDAMKVAFLISLLTGEAEEWVVPYIEMDSPILGDYRAFLDEMKQCFGWDDDEDDDDEEEEDDY
partner: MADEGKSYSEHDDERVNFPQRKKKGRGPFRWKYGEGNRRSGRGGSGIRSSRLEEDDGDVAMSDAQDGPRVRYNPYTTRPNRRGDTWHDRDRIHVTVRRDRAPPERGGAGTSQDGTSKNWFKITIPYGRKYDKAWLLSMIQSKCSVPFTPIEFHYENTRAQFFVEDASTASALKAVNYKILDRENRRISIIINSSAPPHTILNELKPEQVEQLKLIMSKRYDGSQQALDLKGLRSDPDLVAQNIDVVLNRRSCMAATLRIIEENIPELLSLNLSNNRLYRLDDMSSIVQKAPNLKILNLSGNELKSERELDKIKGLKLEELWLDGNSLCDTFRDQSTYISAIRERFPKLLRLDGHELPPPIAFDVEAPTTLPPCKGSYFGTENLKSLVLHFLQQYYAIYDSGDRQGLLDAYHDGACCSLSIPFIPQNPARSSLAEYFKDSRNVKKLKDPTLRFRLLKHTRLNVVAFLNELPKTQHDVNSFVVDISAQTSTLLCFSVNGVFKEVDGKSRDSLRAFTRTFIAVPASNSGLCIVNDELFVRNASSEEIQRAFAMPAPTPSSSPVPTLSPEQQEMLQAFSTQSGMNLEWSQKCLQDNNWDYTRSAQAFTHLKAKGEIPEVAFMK
B6: Dickkopf-related protein 1 (Homo sapiens), O94907 (parent)
chain: MMALGAAGATRVFVAMVAAALGGHPLLGVSATLNSVLNSNAIKNLPPPLGGAAGHPGSAVSAAPGILYPGGNKYQTIDNYQPYPCAEDEECGTDEYCASPTRGGDAGVQICLACRKRRKRCMRHAMCCPGNYCKNGICVSSDQNHFRGEIEETITESFGNDHSTLDGYSRRTTLSSKMYHTKGQEGSVCLRSSDCASGLCCARHFWSKICKPVLKEGQVCTKHRRKGSHGLEIFQRCYCGEGLSCRIQKDHHQASNSSRLHTCQRH
B7: Coiled-coil domain-containing protein 33 (Homo sapiens), Q8N5R6-5 (parent)
chain: MGEPGPPSPPAPKAAPGLIDSFSEMNNYRRAMQKMAEDILSLRRQASILEGENRILRSRLAQQEEEEGQGKASEAQNTVSMKQKLLLSELDMKKLRDRVQHLQNELIRKNDREKELLLLYQAQQPQAALLKQYQGKLQKMKALEETVRHQEKVIEKMERVLEDRLQDRSKPPPLNRQQGKPYTGFPMLSASGLPLGSMGENLPVELYSVLLAENAKLRTELDKNRHQQAPIILQQQALPVDPGELGAGGDLTERLQETHGPGHSECTETLPAQDLLSGTSDKFNLLAKLEHAQSRILSLESQLEDSARRWGREKQDLATRLQEQEKGFRHPSNSIIIEQPVSDPPGVAPRGSGGGAGSHRTPKVTGP
partner: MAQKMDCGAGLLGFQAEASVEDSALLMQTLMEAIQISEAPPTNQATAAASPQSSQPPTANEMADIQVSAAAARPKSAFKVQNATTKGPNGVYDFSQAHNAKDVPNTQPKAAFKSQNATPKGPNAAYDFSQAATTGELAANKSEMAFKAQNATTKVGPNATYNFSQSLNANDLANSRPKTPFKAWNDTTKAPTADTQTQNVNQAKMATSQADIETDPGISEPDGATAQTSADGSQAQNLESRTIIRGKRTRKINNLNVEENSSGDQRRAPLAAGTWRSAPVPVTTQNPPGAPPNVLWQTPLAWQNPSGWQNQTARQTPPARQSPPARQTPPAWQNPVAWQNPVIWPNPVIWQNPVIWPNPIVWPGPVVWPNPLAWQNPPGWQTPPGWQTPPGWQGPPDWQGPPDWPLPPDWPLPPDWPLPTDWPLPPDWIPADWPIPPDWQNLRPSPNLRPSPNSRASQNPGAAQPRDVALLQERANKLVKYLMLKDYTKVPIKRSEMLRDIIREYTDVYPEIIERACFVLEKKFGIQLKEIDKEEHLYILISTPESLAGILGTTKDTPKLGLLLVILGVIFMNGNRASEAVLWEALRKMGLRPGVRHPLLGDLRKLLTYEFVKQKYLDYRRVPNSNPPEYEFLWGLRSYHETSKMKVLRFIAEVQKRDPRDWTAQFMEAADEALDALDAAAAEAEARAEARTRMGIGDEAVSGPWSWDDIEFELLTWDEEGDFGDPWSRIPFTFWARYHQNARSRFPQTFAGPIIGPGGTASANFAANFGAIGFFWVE
B8: Calcium-binding and coiled-coil domain-containing protein 2 (Homo sapiens), Q13137 (parent)
chain: MEETIKDPPTSAVLLDHCHFSQVIFNSVEKFYIPGGDVTCHYTFTQHFIPRRKDWIGIFRVGWKTTREYYTFMWVTLPIDLNNKSAKQQEVQFKAYYLPKDDEYYQFCYVDEDGVVRGASIPFQFRPENEEDILVVTTQGEVEEIEQHNKELCKENQELKDSCISLQKQNSDMQAELQKKQEELETLQSINKKLELKVKEQKDYWETELLQLKEQNQKMSSENEKMGIRVDQLQAQLSTQEKEMEKLVQGDQDKTEQLEQLKKENDHLFLSLTEQRKDQKKLEQTVEQMKQNETTAMKKQQELMDENFDLSKRLSENEIICNALQRQKERLEGENDLLKRENSRLLSYMGLDFNSLPYQVPTSDEGGARQNPGLAYGNPYSGIQESSSPSPLSIKKCPICKADDICDHTLEQQQMQPLCFNCPICDKIFPATEKQIFEDHVFCHSL
partner: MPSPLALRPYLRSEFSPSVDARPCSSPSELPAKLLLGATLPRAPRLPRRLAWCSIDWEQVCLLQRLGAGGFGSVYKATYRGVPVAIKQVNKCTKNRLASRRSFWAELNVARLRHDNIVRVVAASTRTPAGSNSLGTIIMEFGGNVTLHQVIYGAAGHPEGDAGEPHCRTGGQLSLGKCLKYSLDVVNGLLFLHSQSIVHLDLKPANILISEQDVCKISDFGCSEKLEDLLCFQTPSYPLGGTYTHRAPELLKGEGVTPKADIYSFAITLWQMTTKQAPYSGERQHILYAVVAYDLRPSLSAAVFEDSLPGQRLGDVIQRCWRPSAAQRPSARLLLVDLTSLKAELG

Variants of: B1
Details: with FBP1, P09467
FBP1, P09467, sequence (P09467 whole entry): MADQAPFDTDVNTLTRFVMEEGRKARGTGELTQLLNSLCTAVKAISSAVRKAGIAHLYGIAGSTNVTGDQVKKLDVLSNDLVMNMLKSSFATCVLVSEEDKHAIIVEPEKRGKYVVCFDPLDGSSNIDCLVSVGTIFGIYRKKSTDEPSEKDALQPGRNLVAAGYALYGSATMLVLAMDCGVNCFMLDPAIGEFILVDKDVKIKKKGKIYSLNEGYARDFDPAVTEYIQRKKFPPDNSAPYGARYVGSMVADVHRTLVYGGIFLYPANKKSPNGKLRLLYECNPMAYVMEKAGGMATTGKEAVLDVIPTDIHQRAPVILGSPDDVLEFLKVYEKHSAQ

| effect of a mutation on the interaction | Variant |
| --- | --- |
| with no effect | R201P |
| with no effect | V304A |

Variants of: B2
Details: with FAM161A

| effect of a mutation on the interaction | Variant |
| --- | --- |
| with no effect | R8Q |
| with no effect | S688L |

Variants of: B3
Details: with cep76_human CEP76, Q8TAP6
cep76_human CEP76, Q8TAP6, sequence (Q8TAP6 whole entry): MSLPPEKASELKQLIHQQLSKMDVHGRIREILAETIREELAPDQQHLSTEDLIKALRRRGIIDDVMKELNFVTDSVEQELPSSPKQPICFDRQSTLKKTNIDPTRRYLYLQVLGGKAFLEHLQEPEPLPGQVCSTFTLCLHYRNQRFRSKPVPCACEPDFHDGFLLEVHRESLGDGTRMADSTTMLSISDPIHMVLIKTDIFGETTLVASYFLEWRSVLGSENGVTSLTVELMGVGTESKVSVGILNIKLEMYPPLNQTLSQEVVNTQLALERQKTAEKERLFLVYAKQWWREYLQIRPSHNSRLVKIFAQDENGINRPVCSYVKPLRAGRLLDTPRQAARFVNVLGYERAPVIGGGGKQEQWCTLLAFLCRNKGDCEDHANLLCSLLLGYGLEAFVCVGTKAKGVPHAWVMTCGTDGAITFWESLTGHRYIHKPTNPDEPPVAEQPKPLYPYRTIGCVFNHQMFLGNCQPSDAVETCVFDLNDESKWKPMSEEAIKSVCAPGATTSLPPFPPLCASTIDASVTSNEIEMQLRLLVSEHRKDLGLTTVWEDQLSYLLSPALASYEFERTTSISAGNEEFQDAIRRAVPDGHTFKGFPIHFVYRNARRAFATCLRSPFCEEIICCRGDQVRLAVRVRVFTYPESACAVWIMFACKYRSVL

| effect of a mutation on the interaction | Variant |
| --- | --- |
| with no effect | G595E |
| with no effect | R625H |
| with no effect | R88C |

Variants of: B4
Details: with cbr3_human CBR3, O75828

| effect of a mutation on the interaction | Variant |
| --- | --- |
| with no effect | K124R |

Variants of: B5
Details: with nxf1_human NXF1, Q9UBU9

| effect of a mutation on the interaction | Variant |
| --- | --- |
| disrupting interaction strength | L12H |

Variants of: B6
Details: with kr101_human KRTAP10-1, P60331
kr101_human KRTAP10-1, P60331, sequence (P60331 whole entry): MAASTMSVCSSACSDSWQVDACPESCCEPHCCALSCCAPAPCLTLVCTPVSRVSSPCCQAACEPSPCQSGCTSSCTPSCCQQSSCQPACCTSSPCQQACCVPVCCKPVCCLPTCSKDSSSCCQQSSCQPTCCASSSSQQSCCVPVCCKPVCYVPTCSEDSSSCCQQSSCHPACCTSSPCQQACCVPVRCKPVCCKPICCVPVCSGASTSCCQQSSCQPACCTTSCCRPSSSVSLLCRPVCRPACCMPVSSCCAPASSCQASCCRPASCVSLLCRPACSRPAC

| effect of a mutation on the interaction | Variant |
| --- | --- |
| with no effect | S207Y |

Variants of: B6
Details: with mdfi_human MDFI

| effect of a mutation on the interaction | Variant |
| --- | --- |
| with no effect | S207Y |

Variants of: B7
Details: with magd1_human MAGED1, Q9Y5V3

| effect of a mutation on the interaction | Variant |
| --- | --- |
| with no effect | G196R |
| with no effect | P203L |
| with no effect | R30L |
| with no effect | M25V |

Variants of: B8
Details: with mos_human MOS

| effect of a mutation on the interaction | Variant |
| --- | --- |
| with no effect | E222K |

Source: IntAct's records for PubMed 31515488
